Experimental data from article PMC8125816, “Relative Importance of Soluble and Microsomal Epoxide Hydrolases for the Hydrolysis of Epoxy-Fatty Acids in Human Tissues” (International Journal of Molecular Sciences, 2021).

Experiments:
Assay in all cases: LC/MS-MS of diol formed
Format in all cases: biochemical, Homo sapiens
LC/MS-MS of diol formed [1] = substrate: CC/C=C\C/C=C\CC1OC1C/C=C\C/C=C\C/C=C\CCC(=O)O; conditions: sodium phosphate 0.1 M pH 7.4, 0.1 mg/mL BSA, 37 °C, crude membrane extract
From the text: (§1) LC/MS-MS of diol formed on EH3

LC/MS-MS of diol formed [2] = substrate: CCCCCC1OC1C/C=C\C/C=C\C/C=C\CCCC(=O)O; conditions: sodium phosphate 0.1 M pH 7.4, 0.1 mg/mL BSA, 37 °C, crude membrane extract
From the text: as §1

LC/MS-MS of diol formed [3] = substrate: CCCCC/C=C\C/C=C\CC1OC1C/C=C\CCCC(=O)O; conditions: sodium phosphate 0.1 M pH 7.4, 0.1 mg/mL BSA, 37 °C, crude membrane extract
From the text: as §1

LC/MS-MS of diol formed [4] = substrate: CCCCC/C=C\C[C@@H]1O[C@H]1/C=C/C(O)C/C=C\CCCC(=O)O; conditions: sodium phosphate 0.1 M pH 7.4, 0.1 mg/mL BSA, 37 °C, crude membrane extract
From the text: as §1

LC/MS-MS of diol formed [5] = substrate: CC/C=C\C/C=C\CC1OC1C/C=C\C/C=C\C/C=C\CCC(=O)O; conditions: Tris/HCl 0.1 M pH 9.0, 0.1 mg/mL BSA, 37 °C
From the text: (§2) LC/MS-MS of diol formed on mEH

LC/MS-MS of diol formed [6] = substrate: CCCCCC1OC1C/C=C\C/C=C\C/C=C\CCCC(=O)O; conditions: Tris/HCl 0.1 M pH 9.0, 0.1 mg/mL BSA, 37 °C
From the text: as §2

LC/MS-MS of diol formed [7] = substrate: CCCCC/C=C\C/C=C\CC1OC1C/C=C\CCCC(=O)O; conditions: Tris/HCl 0.1 M pH 9.0, 0.1 mg/mL BSA, 37 °C
From the text: as §2

LC/MS-MS of diol formed [8] = substrate: CCCCC/C=C\C[C@@H]1O[C@H]1/C=C/C(O)C/C=C\CCCC(=O)O; conditions: Tris/HCl 0.1 M pH 9.0, 0.1 mg/mL BSA, 37 °C
From the text: as §2

B1: EH3 (Homo sapiens) (protein)
chain: MPELVVTALLAPSRLSLKLLRAFMWSLVFSVALVAAAVYGCIALTHVLCRPRRGCCGRRRSASPACLSDPSLGEHGFLNLKSSGLRLHYVSAGRGNGPLMLFLHGFPENWFSWRYQLREFQSRFHVVAVDLRGYGPSDAPRDVDCYTIDLLLVDIKDVILGLGYSKCILVAHDWGALLAWHFSIYYPSLVERMVVVSGAPMSVYQDYSLHHISQFFRSHYMFLFQLPWLPEKLLSMSDFQILKTTLTHRKTGIPCLTPSELEAFLYNFSQPGGLTGPLNYYRNLFRNFPLEPQELTTPTLLLWGEKDTYLELGLVEAIGSRFVPGRLEAHILPGIGHWIPQSNPQEMHQYMWAFLQDLLD
Km (LC/MS-MS of diol formed [1]): 4.3 ± 1.2 µM | Vmax (LC/MS-MS of diol formed [1]): 0.121 µmol/min/mg | kcat (LC/MS-MS of diol formed [1]): 0.08 ± 0.01 s⁻¹ | kcat/Km (LC/MS-MS of diol formed [1]): 19000 ± 3000 M⁻¹ s⁻¹ | Km (LC/MS-MS of diol formed [2]): 76 ± 16 µM | Vmax (LC/MS-MS of diol formed [2]): 0.027 µmol/min/mg | kcat (LC/MS-MS of diol formed [2]): 0.018 ± 0.003 s⁻¹ | kcat/Km (LC/MS-MS of diol formed [2]): 240 ± 10 M⁻¹ s⁻¹ | Km (LC/MS-MS of diol formed [3]): 10 ± 0.5 µM | Vmax (LC/MS-MS of diol formed [3]): 0.044 µmol/min/mg | kcat (LC/MS-MS of diol formed [3]): 0.03 ± 0.001 s⁻¹ | kcat/Km (LC/MS-MS of diol formed [3]): 3000 ± 200 M⁻¹ s⁻¹ | Km (LC/MS-MS of diol formed [4]): 14 ± 1 µM | Vmax (LC/MS-MS of diol formed [4]): 0.017 µmol/min/mg | kcat (LC/MS-MS of diol formed [4]): 0.014 ± 0.001 s⁻¹ | kcat/Km (LC/MS-MS of diol formed [4]): 1010 ± 30 M⁻¹ s⁻¹

B2: mEH (Homo sapiens) (protein)
chain: MWLEILLTSVLGFAIYWFISRDKEETLPLEDGWWGPGTRSAAREDDSIRPFKVETSDEEIHDLHQRIDKFRFTPPLEDSCFHYGFNSNYLKKVISYWRNEFDWKKQVEILNRYPHFKTKIEGLDIHFIHVKPPQLPAGHTPKPLLMVHGWPGSFYEFYKIIPLLTDPKNHGLSDEHVFEVICPSIPGYGFSEASSKKGFNSVATARIFYKLMLRLGFQEFYIQGGDWGSLICTNMAQLVPSHVKGLHLNMALVLSNFSTLTLLLGQRFGRFLGLTERDVELLYPVKEKVFYSLMRESGYMHIQCTKPDTVGSALNDSPVGLAAYILEKFSTWTNTEFRYLEDGGLERKFSLDDLLTNVMLYWTTGTIISSQRFYKENLGQGWMTQKHERMKVYVPTGFSAFPFELLHTPEKWVRFKYPKLISYSYMVRGGHFAAFEEPELLAQDIRKFLSVLERQ
Km (LC/MS-MS of diol formed [5]): 2.9 ± 0.4 µM | Vmax (LC/MS-MS of diol formed [5]): 0.445 µmol/min/mg | kcat (LC/MS-MS of diol formed [5]): 0.37 ± 0.01 s⁻¹ | kcat/Km (LC/MS-MS of diol formed [5]): 130000 ± 20000 M⁻¹ s⁻¹ | Km (LC/MS-MS of diol formed [6]): 80 ± 6 µM | Vmax (LC/MS-MS of diol formed [6]): 0.053 µmol/min/mg | kcat (LC/MS-MS of diol formed [6]): 0.044 ± 0.003 s⁻¹ | kcat/Km (LC/MS-MS of diol formed [6]): 550 ± 10 M⁻¹ s⁻¹ | Km (LC/MS-MS of diol formed [7]): 2.5 ± 0.6 µM | Vmax (LC/MS-MS of diol formed [7]): 0.038 µmol/min/mg | kcat (LC/MS-MS of diol formed [7]): 0.032 ± 0.002 s⁻¹ | kcat/Km (LC/MS-MS of diol formed [7]): 13000 ± 1000 M⁻¹ s⁻¹ | Km (LC/MS-MS of diol formed [8]): 51 ± 14 µM | Vmax (LC/MS-MS of diol formed [8]): 0.023 µmol/min/mg | kcat (LC/MS-MS of diol formed [8]): 0.019 ± 0.003 s⁻¹ | kcat/Km (LC/MS-MS of diol formed [8]): 370 ± 60 M⁻¹ s⁻¹
